In publication PMC9820559, “Investigation of the Fuzzy Complex between RSV Nucleoprotein and Phosphoprotein to Optimize an Inhibition Assay by Fluorescence Polarization” (International Journal of Molecular Sciences, 2022):
Ends that are not written are not given here. * marks the point of attachment. dicyano BODIPY FL = CC1=CC(C)=[N+]2C1=Cc1ccc(CCC(=O)*)n1[B-]2(C#N)C#N; FITC = O=C1OC2(c3ccc(O)cc3Oc3cc(O)ccc32)c2ccc(NC(=S)*)cc21

T1: RSV N-RNA complex (full-length N protein in ring-shaped complexes with bacterial RNA) (human respiratory syncytial virus, UniProt P03418 1-391)
T1 construct: human RSV nucleoprotein N, full length; concentrations are of N protomer; also called N-RNA rings; source: in lysate for the co-purification; purified (glutathione-Sepharose, thrombin, Superdex 200) as N-RNA complex; copies: 10-11
T1 sequence (looked up): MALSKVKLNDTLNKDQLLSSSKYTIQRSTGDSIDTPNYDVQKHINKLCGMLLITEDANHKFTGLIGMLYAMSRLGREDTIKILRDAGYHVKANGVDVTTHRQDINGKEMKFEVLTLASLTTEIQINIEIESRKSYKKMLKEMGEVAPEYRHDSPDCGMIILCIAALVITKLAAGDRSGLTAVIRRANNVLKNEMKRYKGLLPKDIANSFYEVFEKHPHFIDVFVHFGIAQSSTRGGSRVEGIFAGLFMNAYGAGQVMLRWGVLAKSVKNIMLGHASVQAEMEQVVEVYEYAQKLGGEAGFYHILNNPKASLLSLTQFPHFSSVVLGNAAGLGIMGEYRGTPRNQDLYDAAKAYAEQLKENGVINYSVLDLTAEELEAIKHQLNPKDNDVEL


How the values were obtained:
Conditions in all cases: both partners purified
[1] = target: T1, RSV N-RNA complex (full-length N …); assay: fluorescence polarisation; 200 nM dicyano BODIPY FL-labelled BCNn peptide, N-RNA varied; 20 mM Tris pH 8.0 with 100 mM NaCl, 0.01% Brij-35; 20 °C; single site model
[2] = target: T1, RSV N-RNA complex (full-length N …); assay: fluorescence polarisation; 200 nM dicyano BODIPY FL-labelled BCNn peptide, N-RNA varied; 20 mM Tris pH 8.0 without salt, 0.01% Brij-35; 20 °C; single site model
[3] = target: T1, RSV N-RNA complex (full-length N …); assay: fluorescence polarisation; 200 nM FTU-labelled Fn peptide, N-RNA varied (up to 40 µM N); 20 mM Tris pH 8.0 without salt, 0.01% Brij-35; 20 °C; 30 min incubation; single site model, or with a linear contribution where marked (*)
[4] = target: T1, RSV N-RNA complex (full-length N …); assay: fluorescence polarisation; competition: unlabeled P peptide varied against 200 nM F11 on 10 µM N-RNA; Tris pH 8 without salt; Hill equation; Ki from the IC50-to-Ki server

| Binder | Kd [1] [nM] | Kd [2] [nM] | Kd [3] [nM] | other results |
| --- | --- | --- | --- | --- |
| {dicyano BODIPY FL}-NDLELEDF (C-terminal 8 residues of RSV phosphoprotein P with a phosphomimetic glutamate at 237; also called B8E; source: synthetic peptide (Fmoc/tBu solid phase, dicyano BODIPY FL coupled on resin, RP-HPLC purified)) [BCN8E (dicyano BODIPY FL-labelled RSV P 8-mer, Ser237Glu)] | 7100 ± 100 | 1430 ± 80 |  |  |
| {dicyano BODIPY FL}-EDNDLELEDF (C-terminal 10 residues of RSV phosphoprotein P with phosphomimetic glutamates at 232 and 237; also called B_(10EE); source: synthetic peptide (Fmoc/tBu solid phase, dicyano BODIPY FL coupled on resin, RP-HPLC purified)) [BCN_(10EE) (dicyano BODIPY FL-labelled RSV P 10-mer, Ser232Glu/Ser237Glu)] | 1240 ± 310 | 160 ± 30 |  |  |
| {FITC}-ELEDF (C-terminal 5 residues of RSV phosphoprotein P with a phosphomimetic glutamate at 237; source: synthetic peptide (Fmoc/tBu solid phase), FITC coupled in solution, HPLC purified) [F5E (FTU-labelled RSV P 5-mer, Ser237Glu)] |  |  | 5900 ± 500 |  |
| {dicyano BODIPY FL}-DSDNDLELEDF (C-terminal 11 residues of RSV phosphoprotein P with a phosphomimetic glutamate at 237; source: synthetic peptide (Fmoc/tBu solid phase, dicyano BODIPY FL coupled on resin, RP-HPLC purified)) [BCN_(11SE) (dicyano BODIPY FL-labelled RSV P 11-mer, Ser237Glu)] | 550 ± 70 | 820 ± 220 |  |  |
| {FITC}-DSDNDLELEDF (C-terminal 11 residues of RSV phosphoprotein P with a phosphomimetic glutamate at 237; source: synthetic peptide (Fmoc/tBu solid phase), FITC coupled in solution, HPLC purified) [F_(11SE) (FTU-labelled RSV P 11-mer, Ser237Glu)] |  |  | 870 ± 260 |  |
| DEDNDLELEDF (unlabeled peptide from which F_(11EE) was made; C-terminal 11 residues of RSV phosphoprotein P; source: synthetic peptide (Fmoc/tBu solid phase, RP-HPLC purified)) [P_(11EE) (unlabeled RSV P 11-mer, Ser232Glu/Ser237Glu)] |  |  |  | IC50 [4]: 22000 ± 4000 nM; Ki [4]: 6000 nM |
| {dicyano BODIPY FL}-DEDNDLELEDF (C-terminal 11 residues of RSV phosphoprotein P with phosphomimetic glutamates at 232 and 237; source: synthetic peptide (Fmoc/tBu solid phase, dicyano BODIPY FL coupled on resin, RP-HPLC purified)) [BCN_(11EE) (dicyano BODIPY FL-labelled RSV P 11-mer, Ser232Glu/Ser237Glu)] | 260 ± 40 | 280 ± 70 |  |  |
| DSDNDLSLEDF (unlabeled peptide from which F11 was made; C-terminal 11 residues of RSV phosphoprotein P; also called P_(11SS); source: bought: GeneCust (synthetic peptide, >95% purity)) [P11 (unlabeled RSV P C-terminal 11-mer)] |  |  |  | IC50 [4]: 86000 ± 7000 nM; Ki [4]: 34000 nM |
| {FITC}-DEDNDLELEDF (C-terminal 11 residues of RSV phosphoprotein P with phosphomimetic glutamates at 232 and 237; source: synthetic peptide (Fmoc/tBu solid phase), FITC coupled in solution, HPLC purified) [F_(11EE) (FTU-labelled RSV P 11-mer, Ser232Glu/Ser237Glu)] |  |  | 380 ± 120 |  |
